The labels stand for the following.
B1: Zinc finger homeobox protein 3, residues 2147 to 2202; numbered along this chain, Q15911 (parent)
chain: RPRTRITDDQLRVLRQYFDINNSPSEEQIKEMADKSGLPQKVIKHWFRNTLFKERQ

± gives the uncertainty stated by the source.

This data set covers variants of B1. The data set is described as follows: abundance fitness (aPCA) (normalised: wild type 0, dead -1); higher = more abundant; growth selection in yeast, the domain comes from the species named. To be noted: Homo sapiens.
As for RPRTRITDDQLRVLRQYFDINNSPSEEQIKEMADKSGLPQKVDKHWFRNTLFKERQ, the abundance fitness is -1.12 ± 0.23.
The result for RPRTRITDDQLRVLRQYFDINNSPSEEQIKEMADKSGLPQKVFKHWFRNTLFKERQ reads -0.864 ± 0.39.
Turning to RPRTRITDDQLRVLRQYFDINNSPSEEQIKEMADKSGLPQKVYKHWFRNTLFKERQ, the abundance fitness was -1.08 ± 0.34.
With RPRTRITDDQLRVLRQYFDINNSPSEEQIKEMADKSGLPQKVVKHWFRNTLFKERQ, the abundance fitness was -0.015 ± 0.09.
The result for RPRTRITDDQLRVLRQYFDINNSPSEEQIKEMADKSGLPQKVGKHWFRNTLFKERQ reads -1 ± 0.088; that for RPRTRITDDQLRVLRQYFDINNSPSEEQIKEMADKSGLPQKVCKHWFRNTLFKERQ, -0.349 ± 0.2.
With RPRTRITDDQLRVLRQYFDINNSPSEEQIKEMADKSGLPQKVKKHWFRNTLFKERQ, the abundance fitness was -0.945 ± 0.21.
As to RPRTRITDDQLRVLRQYFDINNSPSEEQIKEMADKSGLPQKVSKHWFRNTLFKERQ, the abundance fitness was -0.987 ± 0.14.
The result for RPRTRITDDQLRVLRQYFDINNSPSEEQIKEMADKSGLPQKVNKHWFRNTLFKERQ reads -0.959 ± 0.22; that for RPRTRITDDQLRVLRQYFDINNSPSEEQIKEMADKSGLPQKVAKHWFRNTLFKERQ, -0.534 ± 0.089.
The result for RPRTRITDDQLRVLRQYFDINNSPSEEQIKEMADKSGLPQKVMKHWFRNTLFKERQ reads -0.706 ± 0.16; that for RPRTRITDDQLRVLRQYFDINNSPSEEQIKEMADKSGLPQKVPKHWFRNTLFKERQ, -1.05 ± 0.21; that for RPRTRITDDQLRVLRQYFDINNSPSEEQIKEMADKSGLPQKVEKHWFRNTLFKERQ, -0.767 ± 0.12.
RPRTRITDDQLRVLRQYFDINNSPSEEQIKEMADKSGLPQKVRKHWFRNTLFKERQ: the abundance fitness was -1.21 ± 0.12.
For RPRTRITDDQLRVLRQYFDINNSPSEEQIKEMADKSGLPQKVQKHWFRNTLFKERQ, the abundance fitness is -1 ± 0.17.
The result for RPRTRITDDQLRVLRQYFDINNSPSEEQIKEMADKSGLPQKVTKHWFRNTLFKERQ reads -0.54 ± 0.13; that for RPRTRITDDQLRVLRQYFDINNSPSEEQIKEMADKSGLPQKVLKHWFRNTLFKERQ, -0.443 ± 0.097; that for RPRTRITDDQLRVLRQYFDINNSPSEEQIKEMADKSGLPQKVIVHWFRNTLFKERQ, -0.107 ± 0.084.
As for RPRTRITDDQLRVLRQYFDINNSPSEEQIKEMADKSGLPQKVIWHWFRNTLFKERQ, the abundance fitness is -0.176 ± 0.1.
With RPRTRITDDQLRVLRQYFDINNSPSEEQIKEMADKSGLPQKVIHHWFRNTLFKERQ, the abundance fitness is -0.131 ± 0.2.
As for RPRTRITDDQLRVLRQYFDINNSPSEEQIKEMADKSGLPQKVIYHWFRNTLFKERQ, the abundance fitness is -0.354 ± 0.18.
The result for RPRTRITDDQLRVLRQYFDINNSPSEEQIKEMADKSGLPQKVITHWFRNTLFKERQ reads -0.246 ± 0.11; that for RPRTRITDDQLRVLRQYFDINNSPSEEQIKEMADKSGLPQKVINHWFRNTLFKERQ, -0.334 ± 0.19; that for RPRTRITDDQLRVLRQYFDINNSPSEEQIKEMADKSGLPQKVIAHWFRNTLFKERQ, -0.096 ± 0.097.
The result for RPRTRITDDQLRVLRQYFDINNSPSEEQIKEMADKSGLPQKVIDHWFRNTLFKERQ reads -0.08 ± 0.16; that for RPRTRITDDQLRVLRQYFDINNSPSEEQIKEMADKSGLPQKVIFHWFRNTLFKERQ, -0.175 ± 0.16.
The result for RPRTRITDDQLRVLRQYFDINNSPSEEQIKEMADKSGLPQKVIMHWFRNTLFKERQ reads -0.2 ± 0.14; that for RPRTRITDDQLRVLRQYFDINNSPSEEQIKEMADKSGLPQKVIEHWFRNTLFKERQ, -0.146 ± 0.12.
On to RPRTRITDDQLRVLRQYFDINNSPSEEQIKEMADKSGLPQKVISHWFRNTLFKERQ, for which the abundance fitness was -0.214 ± 0.12.
The result for RPRTRITDDQLRVLRQYFDINNSPSEEQIKEMADKSGLPQKVIIHWFRNTLFKERQ reads -0.102 ± 0.15; that for RPRTRITDDQLRVLRQYFDINNSPSEEQIKEMADKSGLPQKVIRHWFRNTLFKERQ, -0.069 ± 0.081.
For the variant RPRTRITDDQLRVLRQYFDINNSPSEEQIKEMADKSGLPQKVIGHWFRNTLFKERQ, the abundance fitness is -0.11 ± 0.082.
The result for RPRTRITDDQLRVLRQYFDINNSPSEEQIKEMADKSGLPQKVILHWFRNTLFKERQ reads -0.03 ± 0.088.
The result for RPRTRITDDQLRVLRQYFDINNSPSEEQIKEMADKSGLPQKVIKHFFRNTLFKERQ reads -0.163 ± 0.18; that for RPRTRITDDQLRVLRQYFDINNSPSEEQIKEMADKSGLPQKVIKHCFRNTLFKERQ, -0.524 ± 0.14; that for RPRTRITDDQLRVLRQYFDINNSPSEEQIKEMADKSGLPQKVIKHMFRNTLFKERQ, -0.429 ± 0.15.
Regarding RPRTRITDDQLRVLRQYFDINNSPSEEQIKEMADKSGLPQKVIKHPFRNTLFKERQ, the abundance fitness was -0.812 ± 0.2.
The result for RPRTRITDDQLRVLRQYFDINNSPSEEQIKEMADKSGLPQKVIKHAFRNTLFKERQ reads -0.63 ± 0.13.
Take RPRTRITDDQLRVLRQYFDINNSPSEEQIKEMADKSGLPQKVIKHVFRNTLFKERQ: the abundance fitness was -0.177 ± 0.11.
Take RPRTRITDDQLRVLRQYFDINNSPSEEQIKEMADKSGLPQKVIKHDFRNTLFKERQ: the abundance fitness is -0.361 ± 0.41.
Turning to RPRTRITDDQLRVLRQYFDINNSPSEEQIKEMADKSGLPQKVIKHSFRNTLFKERQ, the abundance fitness is -0.83 ± 0.13.
For RPRTRITDDQLRVLRQYFDINNSPSEEQIKEMADKSGLPQKVIKHTFRNTLFKERQ, the abundance fitness is -0.555 ± 0.16.
Consider RPRTRITDDQLRVLRQYFDINNSPSEEQIKEMADKSGLPQKVIKHYFRNTLFKERQ, for which the abundance fitness is -0.439 ± 0.21.
On to RPRTRITDDQLRVLRQYFDINNSPSEEQIKEMADKSGLPQKVIKHIFRNTLFKERQ, for which the abundance fitness was -0.118 ± 0.2.
The result for RPRTRITDDQLRVLRQYFDINNSPSEEQIKEMADKSGLPQKVIKHNFRNTLFKERQ reads -0.561 ± 0.19; that for RPRTRITDDQLRVLRQYFDINNSPSEEQIKEMADKSGLPQKVIKHEFRNTLFKERQ, -0.348 ± 0.17.
The result for RPRTRITDDQLRVLRQYFDINNSPSEEQIKEMADKSGLPQKVIKHRFRNTLFKERQ reads -0.812 ± 0.093.

Source of the values: the Human Domainome abundance scans (Beltran et al. 2025).
